According to patent US20200378979, “FLUORESCENT MEROCYANINE DYES, ASSOCIATED CONJUGATES AND METHODS” (University of Guelph, published 2020):

Experiments:
thrombin [1] = molecular target: T1, thrombin (Bos taurus, UniProt P00735;P00735 P00735:318-366,P00735:367-625); assay: FP; K+ phosphate buffer pH 7.0; duplex to G4 exchange, 36% fluorescence increase; details: tags: bovine thrombin dry powder, Sigma Aldrich; label: 5'-4QI; partial duplex with 9-mer complement, 3' ssDNA
thrombin [2] = molecular target: T1, thrombin; assay: FP; K+ phosphate buffer pH 7.0, 20 C; Table 6 lists 1.5±0.3 uM; details: tags: bovine thrombin dry powder, Sigma Aldrich; label: 5'-4QI; antiparallel G4

B1: 4QI-TBA-E:TBA-C9 duplex (dsDNA)
DNA 1: GGTTGGTGTGGTTGGT
DNA 2: ACACCAACC
modifications: 5'-4QI on aptamer strand; extra 3' dT
Kd (thrombin [1]): 1300 nM

GGTTGGTGTGGTTGGT (structured_DNA, 5'-4QI merocyanine end-label; extra 3' dT) [4QI-TBA-E]
Kd (thrombin [2]): 1100 nM
